In the DeepSol protein solubility set:

Assay: soluble on expression in E. coli; label from the status in PepcDB or PDB records

Sequence	soluble on expression in E. coli
MAHHHHHHMKAASAAAPAAQTKAAAEAKAATATTAASSLSLSLLQYGASLYEAHTHLPEAAVARLPLNRYADYLRHFGFSMERESRGAAAPGTTLALDCTSPNHKTQAPLDGRWGKRVETDTSYDPVEVAGWGLPEALRCEADQQCNAVGSLSDATEWSAIAKQLVHPFMSVTWRQTATQCTMKKACCVYMWLCSHMTLQVSVPGAEEDAKEDSGGVSTVGLPSAAKAASLARKANRPARKVKEVPTTLEPAAPPDPLLVALQTRRAPAPVLADVYMHMLTSVGVLCEVVVGQLKGAAPEEAFEWSWNMVTVDGRQYLVDVSAALSNGVLRSAASYSDVPSSVAVPEAGKGQRAGNAAGRGKAATPSQSSPPAGSGAVPCSESVQLLPVTPERLRREFFFFAHPTYFLASHFPADPAKALVRTAMRAVQWGVRPRLTPAFYYYGLQLASHKTHSTFAASGSPSYVSFVNHHASTTELCCALYMGTLGTLPEDLSQTAPLGAEWVWHQREESTSTDTFTLTVPQAGYYVVVIGARPIRADPYSAVFTVAGETAFTPVVSYEMRVGFTPSSSPVLPRQYLSPSICRLITPLCSQILPGKHTFCVMPSCSNVLAVAVVKFVAAAATRTLLSLLPFQPRSAAFEGDVDVRSGECVEVWVLYGAPDRNGQELSQRAAAAAPPKAAATPCRSPTPAAKFKAADKKKREASAEHQQQLSALESQLAHLTQALHKGEVFQRCVGGIEVRHFVSPAVVGVIQPQPMVEQEQSITLRRLAGVTDALLREAEEVVRRQPAPVGSYFGAVEAAAAKS	not soluble
MAHHHHHHMKALQRGWRVICATRGGVPIHGSPLYNDFTSLQQKHGDTLSQGVAHDTCHVPQPLEFVSLDATSRLQVFQFMDDHPDASAIISCIGLLTRDHEMARRVCGDANVNIAAALYERRAVARRMVLISAEPVGTRAGFFLNSRWALKGYFMGKRVAERAVLENLGDDGAVLRPGFIYGTRHVPLGEGCVPVPLWPIGKPLEAVLRPLHLHGLLVPPISVDVVAEAAVRLAEAPGPSTVLDYYGMQQVCGLPQDGHHVLGG	not soluble
MAHHHHHHMKELVSSFLNNLSQVSSELSCCKNKKFHVDNVSLCGIEDVLHNRDRSSLIDKEKINTLMELYKNENIYESYEEYDIDKYEKIKNNNILKNMGGNKLNVCNACLFCNNNNSQNHMNKNKNVSENINNVIDLDDEILIANFPFNSLRDVENLTYTNSEHTLNNKEYSYIKNSIDLDFDQQIKNQKKNNNSKNSSHLYNEIVKEGEYDNDDSPNFDEDSSQFKFSVLNNIKNNIHNTKDELTNNYNIIKNTLNQDYEKNIDQKEKHDIIVDNMVNSVDYQNDMDTNIKTKKKKKNQAYSNFYAKSDLPSSNIDEGSCKGCKASDTSSEFFSVASGMKPNN	not soluble
MAHHHHHHMKKNLIRWGEKVTDELTKVTLTDKPLGTDFDQGIENLQIKFKELFKIWKNASNKLINDFTSKLDTTSYLSSLQNFVDNEYEFYDSASSVCDEETNS	not soluble
MAHHHHHHMKKRYGNAGDWAVVTGASEGIGYAMALDLGRRGFNVCVIARTLSKLENVVEELKQLGVQGKAISFDFASATPKQYDDMFAELDKIEIAVLVNNVGVNYTYTNYFDEVDLETDLRLLKVNCESSVRMTKYVVPKMKAKRCGAIVMLGSVSAVTPAPLLCTYAGTKAFNLSFGSGLYYELKQFGIDVLAVSPNMVVSKMTQGLSSRKPRETFLMVNADRMAHQTLDKLGSVPQTPGHCNHAVLEAIVRALPTGYVSNKILETHKSIKRKAERKRE	not soluble
MAHHHHHHMKLFLTVVERHNSTNSSDVTPTDDVALFDPGVWSRTATSEMARRNVSASYVAQQVYRHAALTQLAKVALSSAVCFRYGPRPPPHLDSFLFHKRCRPTGHGRCGTPPAAAAPPVCAPSPLISSSSSSFSVNMAATSPGTGQQRSTAAGASDSATEYDSLLALWLRELLSGTDSSVTVTALLLFVEGTAIDMATGSKVHTPLNIGSGTARQLRTHEDAMAFLHACESTLHHSAAEFPRCPYHVCVAVLVGTHGGSHGKNPVIFLDVAAAAPESAGAHQEVRLREQVALFGRQLGADATTATPHARQRTRKAEDEQWLSLLQSCQLSRASLVGLVYVACEAGHDPFGHSRVEGTDCDPFTLASVLRQRALLEAVNNGVLHPQLRKLSRARNRATARAVKLPASGATTRSRAPASPLKGRPSRGRQRPQQHSPKLPYLARDSVPPRRTQEHSIVFYGVSRCGRSADLLARIEEEEHHARVALSSAEQRAWNLAELRWILRAHPPGKSIDAMLRRFAHNVDGVSRPEQQHPHSVPPRFLPPPLNVAQLATAISRPSTTATRRSSFASATRTPESTSPGGTVRTRVTASMLPTSPSRLALTSTFFTRRITTPLFFREAGSPPQNQDDPRAHSASSHVAVRGHNATELERRRLKSGATFSLATDSPNARACTTARRLSAIETALLARAHSSSQRSLPSPSPCTGEVERLYPLVRAFHVEMCEQDALMAEELMMRSCIEHKEKNCRKTLSVARAESVRRLSVWWPSETGTQPQREPQVPDSPRWRPAKPLPLRIFFQQ	not soluble
MAHHHHHHMKNFASWALRLHQDGISEERPQLGKQLYDKVCTVQTVKDYPGLRFKDMKEAIGFPIKRDDMFLPASMKEKRQQQQQIGVPPRRSQCFTCGQLGHYSNTCGVFKHKLNTRQKSDIQFKKQ	not soluble
MAHHHHHHMKNTVVRIKAELENVKRLFCDDEYLWIFNIRDSTSSLTRDNIQFRKTDILEIPNSRGTANFMIKWTEYPKYSTINFVNTKNSCSYEEVNNNEWRDFASFECRGIELIDFFPSNNFIVEDTKGKLYYDVNLSDQNWCDYNEEHEMCVGIYNLEYEVN	soluble
MAHHHHHHMKSTRTTAKVRPACLPYSTTMRSSRQTSSLLSRVAHSVGAVVAKANLLRQSPSREAHRPSGPAEGLRPSSSSAKPPVLASGDILRDLAFFTQASEVGFFSTHPSLCAQVFGVVPGDVFEVGGGCAVTSSSVVDVDAGSRMAREAIVVVGARSGKLWVWAYGDEAARVLRVPSSTTSAMLSSAVEVRAAIVEHYQLRQLVHPSRRQCSAGGGKAMEQDAQVEFARTVCEAFQSLCARAHEEVQRLYTPDQLAFLQRAPDLYAAATKRVDRVASSLDDASPTAGVNSEPQRQQPNHPPDGSSSFLPRSIYSDIARHAQHAAAVVLLAPRVSLVTGAVGWVGEGDVVLADSLVSQGGCAEASLSASVVI	soluble
MAHHHHHHMKTCKTGIQKVRDVSEATVLVLDWFERRNKPATPQSLADALGSRVAKSLLQKILEQLHAEEKLHVKDMKKIRFYYRRVLPLSDADGATTTKQHSEPEDDPAATTGERGNAVNVPEVCGGAETCAESPADAHAALLHAVAISAVQLSERSLRLTRWRGWPSSTERADKYADLAREVCELRNSLERLQSRHAGESAEAHGGGSWTSRVRRAVCRYRRARRHWVQRKDWAMCLLEATAGDAHTPLQAAALLGCTTDAEAGVSFEDTAVALPAPLMRELNLSQR	not soluble
MAHHHHHHMLDDLKTAYTPAVASKICYVASQLRIDATKGQPYTAVLEATMTAEGEQAMEVASLARIVHSCLVLRSGHLHEVLFTFIPFLREKAGTMDAVTTAVLINAYGRSGVHHPGLYKALCDNGATVLKDPRVPLAHIANVAYAVSRVKFLHPALMLTLRDHALRKVAEASPIISLTVLDAFTELRQIDDDLFNAYEQRLLGQLNELQAPLMASLVSCVVRAGRGKAEVMESLGARTVAIADTFDAASIAKVTNAYYEADVASEDVLGALAERACKVAADFRADEIATVLNALSAFDLFDAELFPLLASRLVALHRQGGYVDVADAAVILSSFAAVQERNDELIYVCTQLFAAYPGVAMDPAVRVNALWACASLNVHNEAQTKMLEEVRATPSLVMWESKTDTLPKAKATLEERTRFLAKVYGITISSSGAR	soluble
MAHHHHHHMLGACYPIPSGISLSLSRSRAYDVVYHYTRAAHIRLRLHGSGHSGEHMAAAEQRTCRPHLLWRLDGRPHADSIGHGLADDTRLCARVDLRRMLVACPRWGQSRAFIPQSRRLRALPRDGLRACLRGAVLPSGLATVTMVADDTT	not soluble
MAHHHHHHMLLFKRPHLRACESHADIAVDLAPLSQLRNYAEFEELLREELQKIYGNAPAEFHGVITYSTRDAPQSFRGCFTERQLETLHQYDAAVEKINHLSSEYRVALEEHERLVEGNKDRKPTQKRIREEEKSRKRLRAMKREVVAAEYNKECLSLKLKNLFSIDVIRVPLH	soluble
MAHHHHHHMLPAGLTLNTLTPLAQIPVELQRLARCAINAHRNAYCPYSKFAVGAALLHKDLKITAGCNYENCTLKGCCAELCAIVKGNSEGRRTATAVAVYGCSKAPDVMNLPPPDTVTPPCGFCRQSLVEVADLSNNYEDFLVVLVTLDKERVKLVKLCDIIPLKFGPSNIGMDLSQLAKDVELGNEDEKK	not soluble
MAHHHHHHMLRPTRVSRLVRSGSVALTPSCWTTKPAGWYLVPSSTLPATEELRVGKCFDFLNHSAQYLFLGQVMALAEEVKCIPWLEWFYSELHFSLPPTKEAELLANYMNDQERLRCGLRNHSEGGTSSSDIAWSRELKERVQRRAEEDFCWLLTHDQRKTEKFLQETFIQWHHRADYLVTRKSREKREFREDLTLQKVIQQGQERKRRMQRRRNRDEARQEAIKSGKESEWDNFTHDVLPRELREALDRESDGMEDVRLSRAGTATGGWSRSMRSHPNFR	soluble
MAHHHHHHMLRRSVVNLQNPARVFRSAAKRQKLDEAVRVDQAGEVAAVRICKYQLLWMSPLDSGVPVVKEILRDELVHEEVMGHLARKHSVRLTLLDPLFHVGAFVMGSCTALLGKDAVMCCHAAVEVTIAQHYNDQLRELQSLEESEGASKGKDEKDWAEVMEYVARFRDEELHHQELGEQNGAENAPAYPLLYNGIRIMCSLGVALAKRI	not soluble
MAHHHHHHMMLHTRRTVYSCICVHTHTHTHTCGCPPPTLSQKKKRSRLFMSSSSGDEYDPAEVTVHTTVASPSLSDTVVPSAAPFLRSAAGNASAATVAAAPALASLPKTAASVLPSSSSPTPPNTGNDVDGGYRLHSNIKGRIRCLTLNTAGTTLCAGSEDGQLCMWDFTVPLKSYRVQPTRVLTPFVNRISGLQPIIALTCASDDSYFVACQDGDSPVLVRASGEQLGYCAIGERGLMDVIQCKGHRAPVTCVAAHTHDAAAFFTGSQDGTVRLWNTATFKQRSVYAVKHGSGQLTDTHAVESVASLDSFHNGLGRVFASGGQDGRVQIWDSRVKYRPGGAIATVDMYAAAAPAGPDKVTEDPFMEKHVGGMMELHQKDAGASNASGSYGLAVRLGSAVKIIDLRQLSHSDGTTAPKAVLQEAATGLPHVLDTSALSIGRGGGSSTMMTCTSRVGYRHTKGGHVVQYRYADGDRLVPTLVWRAGKQDEDVLCACADISRADGCVFAGLSSGDVVVHGAFSSGAAAPQPMEAWLQTRPQREGYERAVGVKAPRAVEDDADLLRDLF	not soluble
MAHHHHHHMMRRMWVPTFSAQQQHLHHAMGLKMLTYASTPSGSGVTSAASNEEMNLHDAAAIAPGPYRRVGNIFIVHCDDHPFKHSWEVNRMLRELRLEFKGQTTIVPDIPQVRKRIWRVRHIVKVDVLDLDEAKALIGVPEHISFTDLASQLPPSFGRVKAVPSPVIRSKMNFMKLRRMRLRDVLHRDALELRLLELKRSAMKNAEQQKHAQK	not soluble
MAHHHHHHMNFLKRNATNICKGKVLGKHLNTSVQELTNLNKRKFSNIINLGKYGQRYQATHSGSIIGAKRFASGEAQKLSEVVKAEVQHEKSNYEAPDNIKKFLQTSGWKFEEQEGDVNMVLTKNVDGMKIIIDFQLVSPFQAEGENEAQAEMTDFSVTVEKPNKQGGITFYCTTLQNDEKFRYMIGNVKYYKNEEGKNSVSAYNGPEFEDLDDSLQTSLDEWLANLGVDSELCDFIDSCSIDKEQREYMSWLQNISNFIES	soluble
